# Test results: the DeepSol protein solubility set
# Test: soluble on expression in E. coli; label from the status in PepcDB or PDB records
row,Sequence,soluble on expression in E. coli
1,TDKVRQNEKQKRSKALAQTQVNKRLLNEHGLNTPPMMKDEADQFVVSPTNWAGIIDQALAPPRTRKSYQKSMVSISGTKAVIETRSSKN,not soluble
2,MEKIWPTGAQEETLMTQETNQNEVVVQNNAVAKTNTGSNYITAILEETKQGFVEANNGLDMDFVRMGEWLTVTKKGNFVEKDDENVSYGDNIDVVIGYGEQRWSVWGLEESPEAGQLIVAERTKEEAEIVLNQWLAENPQAQERYELDAIQLRYMASVVPVSTLRPDDFPRIYLMSFSPTDTIIFGRFAMNVYTGKYKALEIPSKLGVNRIVTRLVTAERKSRTNASNQWIGIDFQPVGVFKPEDYGINVEETEQAEKASE,not soluble
3,MSLSDVSSNYWAAPFIQQLSQRGVIAGFPDGSFRPEEAVTRAQFAAMVNKAFQKSQQRSPINFADVPSNYWASSAIQQAYTIGFLSGYPGNRFEPNQAIPRQQVLVSLANGLEYSPIGNTESTLQYFNDASNIASYARSPMAAATEKQIVVNYPNVKFLNPTATATRAQVAAFIYQALVSSNQASAINSEGHHHHHH,soluble
4,MFFKQFYEDNFSQASYLIGCQRTGEAMIIDPIRDLTKYLKVADKEGFTITKAAETHIHADFASGIRDVANKLNASIYVSDEGKDEFNYKNMPKQTHFVKHQDIIYLGKIKLEVLHTPGHPPESISFLLTDEGGGSSIPMGLFSGDFIFVGDVGRPDLLEKAVNVEGSTKIGAKQMYQSIQFAATLPDYIQIWPGHGAGSPCGKALGSLPTTTLGYEKINNWAFNVKDETSFIETLTLNQPAPPHHFSQMKKINQFGMQMYQPYNVYPSSSNTQTAFDLRSKEAFHGGHMHGTINIPFNKTFINQIGWYLDYDLEHHHHHH,soluble
5,MNQLTSSFIQNLAEDNIYKLPPHSIEAEQSVLGGLMLDNQAWDKVADIIIESDFYRQDHQLIYQHISRLIEQNKPADVITVAESLENAAQLQHAGGLAYIGAIAQNTPSAANIRRYAEIVRERSIMRKL,not soluble
6,MLKLYVLVYKGEPLDYHEYRHTALYLKLPDNQSFIMHILGTQGMFEYAQIKNKDPSVVGSLAKVVPVADISEVIGSGPIQSTVAKTLVQNGPLDLDWNCQHWVGDALSKLAERKYITVAERAEAIDRMMDACLEAMDD,not soluble
7,MACKRLVPGGEIERTRRVLDLFADSGSRVIRPQQPVDVLGSEGPAKVLGQVQNNVAVQYDHMVRGIGHDTGLESDQVCRLTERGICVRELLTLVFGDKALGAEHGDIRRGHTQDAGVL,not soluble
8,FEPMMQRDKIMQNLSYISDVNVLPDWMTVSQLLSYTEGVHPGFNRSKADALLRQTDIKPRAKIRALSKGMKVQLHLAIVIATNTQILILDEPTLGLDLVYRDTFYRHLLEWFHDGERVLIITSHEVSEIEHLLTDVLILKHGRPVLQTSMESISEDYFILDANDEHRAQIEAMHPLSSQKGLGTTKWLLSSQYADQAAGLGDVHGVKLADLFLALQKEAA,not soluble
9,MIVPALIGSLPRPIGLAKKIELYSIGRLSEEKLEEAYRSYTRKAFENLKKARIKVITDGLYRWDDIFNPLIRFIDGVEVNGLFKFYENNFFYRSPVVRGELSLKENPLPGWISIAQEIKEDVYPEAELKAVLPGPVTLAYHSINEYYKDLNELTEAYATVLRELIKELDVKIMELQEPSLAAELSKATRESEEHVSKEVAKKVIEDLARVKKLWVVTYFGTPQVVPKDVILNIDLIEGNVPDEVKGEVGLGIVNARETKMERADRLKDKLRKYIRKFEKVYVTPNTLLDFLPERVAWKKLKLLGRLGGELEHHHHHH,not soluble
10,MVYVAVLANIAGNLPALTAALSRIEEMREEGYEIEKYYILGNIVGLFPYPKEVIEVIKDLTKKENVKIIRGKYDQIIAMSDPHATDPGYIDKLELPGHVKKALKFTWEKLGHEGREYLRDLPIYLVDKIGGNEVFGVYGSPINPFDGEVLAEQPTSYYEAIMRPVKDYEMLIVASPMYPVDAMTRYGRVVCPGSVGFPPGKEHKATFALVDVDTLKPKFIEVEYDKKIIEERIRAEGLPEEIIKILYHGGRP,soluble
11,SPRKESPLRTAVDAAALTTSDIARQLEVKVQRMNTAHEREANAISSFQQAYGIASAHLDRLLLRIPELPLPEIDDRDVDGGRVRGTFASLQRHHQALDDAISAMHQASEKVYTIPGKQATQEQDPALAQLLSVEKRRRSLGHALETLAGRGVEAGTATGLELNRVSSQVNDLVARRDALLRQRESGVQEGGLDSEELEMELQLTTSVLQRLRADLLGERQAMEATAKRLDQASRAALEGERSFSDAVRDRAWGELDNV,not soluble
12,MGSDKIHHHHHHMMRRRLPSLIALRAFEAVGRTGSVRAAGDELAVSHTVVSRHLQNLQKFLGVALVRGEGRGVILTEAGVSFHAQISQAFDIIARATTAARPSSLPTLNIWCIPGIANRLLLSRLPELTGPPRNWEVNLQPTLTHPDLSRAEADAEIVYADVIDSRGPLMSEILVRPRVFPVASPAYLARYPAITSLEDLSQIALIHEESTMQWTRWFELAGLDDLPPLRGQRLWHAHLAIEAARLGQGVALANDVLVEEDLRSGALVEVITSSVYMETYQLVALKERWDDPAIVALRNWLKQVLAELE,not soluble
13,KQQLTEDGDSFLHLAIIHEEKALTMEVIRQVKGDLAFLNFQNNLQQTPLHLAVITNQPEIAEALLGAGCDPELRDFRGNTPLHLACEQGCLASVGVLTQSCTTPHLHSILKATNYNGHTCLHLASIHGYLGIVELLVSLGADVNAQEPCNGRTALHLAVDLQNPDLVSLLLKCGADVNRVTYQGYSPYQLTWGRPSTRIQQQLGQLTLENLQMLPESEDEESYDTESEFTEFTEDE,soluble
14,MHLRTYYPTVVLSDIHLGTQHSKTEEVTHFLKSINCDRLILNGDIIDGWHLQKSGLGKWKAKHTDFFKVIMKMMENFGTQVIYVRGNHDDFLDNLAPLNFYNIRIVKDCIYESHGRRYYVTHGDIFDTVTTQMKWLAKLGDTGYTFLLWLNKVYNLRRMKQGKPYYSLSQSIKNRVKTAVSYISDFEKELVGLARAKKCDGVICGHIHHPANTFYEDIHYLNSGDWVETLSALTEDEDGNWTIRYFDSGLLKEDNHKEKQTISITIAS,not soluble
15,MARNRLTESEMNEALRALDGWQKVDGREAITRSFKFKDFSTAFGFMAQAALYAEKLDHHPEWFNAYNRVDVTLATHSENGVTELDIKMARKMNAIAG,soluble
16,MADNPTNLRNADFRKLLTSARSDRPAVSAFAKPADPKTGDDKPASFKHKHLKPAKFKKPQAAAHGKAKKEKTEADEDEAALKNILKNYRDRAAERRKQGDEKEDPSKLTAAYRAVPGDARSAQDQADLRKQAILESKYLGGDLEHTHLVKGLDYSLLNKVRSEIDKSDDDDDDDIDTAFDEKVTSSSSSSKPSEASLLAQELAQSHSENRMVRSLHRVLFKNEVPLHNQLFAKGRMAYVVELEDEETDIPTTLLRSLHDLPRAESAQSIQANNLIILKLSHVLSHLRAEPKKKKKEEFRVQLGSRDAPGAAAAAPGAKGDSIYDDLDDYVPSRKSRDSRDAGRRGSRRDRSRDRSRDRDRDRDRDNRDRYFEKSANSRREEEQNRREQQRERERAEQERRREREKEREQEKAKEREKKRKELEESSGYDECYPGGLVEMGGAWDSDEEADYSKMDAGPKKNQAVNRWDFDTEEEYASYMEGREALPKAAYQYGVKNGEGGRKNKKQSAVSDAKRLDRELNEINKIMDKRKAGGDGAGGGGDYKKPKY,not soluble
17,MSGIWGNNLKVSIFGESHGNAIGINIDGLPSGIELDLDKIDKEMKRRAPGKNSISTSRNESDIPEILSGYFNGRTTGTPLCAIIRNSDTRSKDYGELKNLMRPGHADFTGNVRYSGFNDYRGGGHFSGRITAPLVFCGAICKQILSQKGIEIGAHIKKIKNIEDMSFDYVNISKQQLSNLQTLELPLLDLSKEEAMKNTIIDAKNQGDSVGGIIECAVVGINVGLGNPFFDSVESTLSHLLFSVPAVKGVEFGLGFELADMYGSQSNDEMYYEGNQVKSKTNNNGGIIGGITTGMPIIFKVAIKPTPSISRQQNTVNIKDKKDDILYIKGRHDPCIVQRAIPVIEAVTAIGIFDLMKGR,not soluble
18,TSGTLYLVPTPIGNLQDMTFRAVATLKEVDFICAEDTRNTGLLLKHFDIATKQISFHEHNAYEKIPDLIDLLISGRSLAQVSDAGMPSISDPGHDLVKAAIDSDIAVVALPGA,not soluble
